Assay results published in US20240122985A1, “ANTIBODIES, COMBINATIONS COMPRISING ANTIBODIES, BIOMARKERS, USES & METHODS” (KYMAB LIMITED, priority 2016, published 2024).
“And” between values parts separate entries of the source, which are not always exact repeats. Equal entries are not always repeated.

B1: 2D10 IgG4PE: fully human anti-human OX40L monoclonal antibody, human IgG4-PE; VH Seq ID No:34, VL Seq ID No:48; 2D10-1 to -4 are stable pools (antibody, V domains shown)
VH: EVQLVESGGGLVQPGGSLRLSCAASGFTFSNYAMNWVRQAPGKGLEWVSTISGSGGATRYADSVKGRFTISRDNSRNTVYLQMNSLRVEDTAVFYCTKDRLIMATVRGPYYYGMDVWGQGTTVTVSS
VL: DIQMTQSPSSLSASVGDRVTITCRASQSISSYLNWYQQKPGKAPNLLIYAASSLQSGVPSRFSGSGSETDFTLTISSLQPEDFATYYCQQSHSVSFTFGPGTKVDIK
modifications: human IgG4-PE constant regions; 02D10 - VH Amino Acid Sequence; 02D10 - VL Amino Acid Sequence

Tested on: Rhesus Macaque Graft versus Host Disease (GvHD) model
Source text: The effectiveness of antibody 2D10 IgG4PE as a monotherapy prophylactic for the prevention of GvHD was examined in a Rhesus Macaque model of haploidentical hematopoietic stem cell transplantation (HSCT).
All transplants were between half-sibling pairs that are mismatched at one MHC haplotype (“haploidentical-HCTs”). Recipient animals had irradiation based pre-myeloablative pre-transplant conditioning using a linear accelerator. Dose rate: 7cGy/min. Dose 1020 cGy given in 4 fractions. The leukapheresis donor animal underwent GCSF mobilisation and underwent leukapheresis using a Spectra Optia apheresis machine.
2D10 IgG4PE was dosed at 10 mg/kg i.v. according to a planned dosing schedule to take place on Day −2, Day+5, Day+12, Day+19, Day+26, Day+33, Day+40, Day+47 post-transplant.
Samples were taken during the course of the study to monitor donor chimerism (Table 4) and white blood cell counts. The primary end point was based on survival, with a survival to 15 days deemed to be a sign of successful prophylactic therapy (and compared to the documented survival of 6-8 days with no prophylaxis; Miller et al. 2010, supra). Though full pathology and histology with GvHD grading scores, markers of T-cell proliferation and activation (such as Ki-67 and granzyme B) and gene array analysis are planned, they were not available for inclusion at the time of drafting.
Scoring of clinical symptoms was based on observational assessments and clinical chemistry, classified according to the criteria set out in Table 5.
A further rhesus macaque GvHD study was conducted to determine the effect of combined post-HSCT prophylaxis with 2D10 IgG4PE and rapamycin. The study was performed as described in Example 7, with dosing as follows: 2D10 IgG4PE was administered i.v. at 10 mg/kg on Day −2, Day +5, Day+12, Day+19, Day+26, Day+33, Day+40, Day+47 and Day+56 post-transplant. Rapamycin was administered at a loading dose of 0.1 mg/kg i.m. on Day −14, followed by daily i.m. maintenance doses of 0.025 mg/kg until the scheduled termination of the study at Day+100. Rapamycin dosing was adjusted to maintain serum trough levels within the range 5-15 ng/mL.
This was a cohort study in NHP designed to determine the clinical, immunologic and molecular outcomes of OX40L blockade during allogeneic HCT. Two cohorts of transplant recipients were studied: (1) Allogeneic transplants using the OX40L-blocking human IgG4-PE antibody 1D05 (described as ‘KY1005’ in this Example 11) as monotherapy for GVHD prophylaxis (abbreviated as ‘KY1005’; n=4). KY1005 was given at a dose of 10 mg/kg starting on Days −2 and then once weekly until discontinuation on Days 54 (FIG. 8E). […] (2) Allogeneic transplants using KY1005 in combination with Sirolimus (Rapamycin) ([…]) for GVHD prophylaxis (abbreviated as ‘KY1005/Siro’; n=5). KY1005 was given at a dose of 10 mg/kg starting on Days −2 and then once weekly until discontinuation on Days 54 (FIG. 8P). […] These two OX40L-blockade groups were compared to the following cohorts, aspects of which have been described previously (Furlan et al., 2015; Furlan et al., 2016; Miller et al., 2010) (1) Autologous transplants (abbreviated as ‘Auto’, n=6 for clinical and flow cytometric data and n=4 for transcriptomic analysis) (2); Allogeneic transplants with no GVHD prophylaxis (abbreviated as‘No Rx’, n=11 for clinical and flow cytometric data and n=4 for transcriptomic analysis). (3) Allogeneic transplants using Sirolimus monotherapy for GVHD prophylaxis (LC laboratories, abbreviated as ‘Siro’, n=11 for flow cytometric analysis, n=4 for transcriptomic analysis).

[1] = Rhesus HSCT, 2D10 IgG4PE 10 mg/kg i.v. weekly from Day −2, one line per animal, brackets = experimental failure

Molecule	MST (Example 11 (FIG. 7C)) [days]	GVHD-free survival (Example 11, NHP (FIG. 7C)) [days]	Survival (Table 8, per animal, Seattle)	median survival time, MST (Example 9, post-HSCT prophylaxis, Rhesus macaque (FIG. 7)) [days]	Survival Duration [1]	Survival Duration (days) [1]	survival of animals after allogeneic HCT (Rhesus macaque)	Gross necropsy, visceral GvHD (animal #4)	adverse dosing side effects (rhesus monkey, in vivo, iv, 10 mg/kg)
KY1005: antibody used for GVHD immunoprophylaxis in NHP, measured by antigen (OX40L) capture assay; not tied to 02D10 in this part	19.5	19.5	16 day (2×) and 26 day and 23 day						
B1				19	22 days and 16 days (2×) and 26 days	(24) days	prolonged survival	no overt visceral GvHD	No serious adverse dosing side effects
